PMC7885793 (Biochemistry, 2019)

Target: T1, PLCβ3-Δ892 (residues 10–892) (Homo sapiens, UniProt Q01970 10-892)
T1 sequence (looked up): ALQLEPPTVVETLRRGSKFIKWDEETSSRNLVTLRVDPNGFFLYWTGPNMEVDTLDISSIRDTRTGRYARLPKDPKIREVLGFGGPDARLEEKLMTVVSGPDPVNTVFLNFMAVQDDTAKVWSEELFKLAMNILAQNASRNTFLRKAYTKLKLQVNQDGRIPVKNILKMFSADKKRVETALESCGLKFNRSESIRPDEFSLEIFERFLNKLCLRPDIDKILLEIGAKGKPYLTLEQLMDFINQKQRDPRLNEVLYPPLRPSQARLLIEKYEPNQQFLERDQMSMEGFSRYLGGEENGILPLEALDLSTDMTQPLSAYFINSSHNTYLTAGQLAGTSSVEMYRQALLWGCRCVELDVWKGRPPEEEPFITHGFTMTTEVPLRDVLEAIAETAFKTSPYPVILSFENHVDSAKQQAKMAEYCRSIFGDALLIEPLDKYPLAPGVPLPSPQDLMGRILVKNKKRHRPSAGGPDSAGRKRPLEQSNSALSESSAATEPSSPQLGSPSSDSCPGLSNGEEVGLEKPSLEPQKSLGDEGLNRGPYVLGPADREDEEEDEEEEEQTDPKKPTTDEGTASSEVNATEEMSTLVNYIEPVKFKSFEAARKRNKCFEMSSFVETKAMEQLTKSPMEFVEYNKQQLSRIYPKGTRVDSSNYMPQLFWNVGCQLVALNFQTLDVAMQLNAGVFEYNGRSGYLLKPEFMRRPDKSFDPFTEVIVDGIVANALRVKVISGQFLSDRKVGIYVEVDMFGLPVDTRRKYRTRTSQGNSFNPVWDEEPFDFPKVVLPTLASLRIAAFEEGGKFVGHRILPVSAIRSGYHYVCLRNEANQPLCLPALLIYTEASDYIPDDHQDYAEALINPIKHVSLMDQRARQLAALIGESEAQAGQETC
Assay: cell-based or functional assay

B1: Activated Gαq (Gαq·GDP-ALF4^−) (natural protein, murine, UniProt P21279 7-359, looked up)
chain: MACCLSEEAKEARRINDEIERQLRRDKRDARRELKLLLLGTGESGKSTFIKQMRIIHGSGYSDEDKRGFTKLVYQNIFTAMQAMIRAMDTLKIPYKYEHNKAHAQLVREVDVEKVSAFENPYVDAIKSLWNDPGIQECYDRRREYQLSDSTKYYLNDLDRVADPSYLPTQQDVLRVRVPTTGIIEYPFDLQSVIFRMVDVGGQRSERRKWIHCFENVTSIMFLVALSEYDQVLVESDNENRMEESKALFRTIITYPWFQNSSVILFLNKKDLLEEKIMYSHLVDYFPEYDGPQRDAQAAREFILKMFVDLNPDSDKIIYSHFTCATDTENIRFVFAAVKDTILQLNLKEYNLV
  x-fold maximum activity over basal (complex against the PLCβ3 variant alone): 22 x-fold
